Experimental findings from patent publication US20250002588A1 (DIAGONAL THERAPEUTICS, published 2025) are described below.

The target of this assay is ALK-1/BMPR-2 receptor pair of the PathHunter U2Os dimerization cells (DiscoverX 93-0962C3) (UniProt P37023 22-503; Q13873 27-1038). The assay can be described thus: cell-based or functional assay.
ALK-1/BMPR-2 receptor pair of the PathHunter U2Os dimerization cells (DiscoverX 93-0962C3), sequence (P37023 22-503, one chain of several): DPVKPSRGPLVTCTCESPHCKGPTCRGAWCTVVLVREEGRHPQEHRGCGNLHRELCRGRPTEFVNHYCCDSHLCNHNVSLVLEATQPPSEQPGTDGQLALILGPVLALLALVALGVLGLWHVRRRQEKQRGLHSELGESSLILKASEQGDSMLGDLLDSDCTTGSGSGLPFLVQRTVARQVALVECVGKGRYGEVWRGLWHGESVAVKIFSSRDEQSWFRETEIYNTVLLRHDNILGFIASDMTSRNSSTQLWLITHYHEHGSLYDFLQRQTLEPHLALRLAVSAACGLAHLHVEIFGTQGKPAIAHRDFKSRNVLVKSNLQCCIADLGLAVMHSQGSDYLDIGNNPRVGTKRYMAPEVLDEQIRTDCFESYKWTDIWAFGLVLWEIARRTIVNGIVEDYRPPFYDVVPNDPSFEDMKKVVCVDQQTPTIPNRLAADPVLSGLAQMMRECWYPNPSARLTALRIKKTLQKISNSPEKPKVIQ

B1: DGL904 (bispecific antibody)
chain 1: not shown
chain 2: EVQLLESGGGLVQPGGSLRLSCAASGFTFSDYWMTWIRQAPGKGLEWVSSISGGTTYYADSRKGRFTISRDNSENTLYLQMNSLRAEDTAVYYCARDFGVSGWFGQYGMDVWGQGTLVTVSSGGGGSGGGGSGGGGSQSVLTQPPSASGTPGQRVTISCTGSSSNIGAGYDVHWYQQLPGTAPKLLIYRSNQRPSGVPDRFSGSKSGTSASLAISGLRSEDEADYYCSSYAGNYNLVFGGGTKLTVLDKTHTCPPCPAPEAAGAPSVFLFPPKPKDTLMISRTPEVTCVVVDVSHEDPEVKFNWYVDGVEVHNAKTKPREEQYNSTYRVVSVLTVLHQDWLNGKEYKCKVSNKALPAPIEKTISKAKGQPREPQVCTLPPSRDELTKNQVSLSCAVKGFYPSDIAVEWESNGQPENNYKTTPPVLDSDGSFFLVSKLTVDKSRWQQGNVFSCSVMHEALHNHYTQKSLSLSPGWSHPQFEK
On to B1, for which the “% Emax BMP9” value stood at 17% and the “Emax (RLU)” value turned out to be 475000 RLU.

B2: DGL905 (bispecific antibody)
chain 1: not shown
chain 2: EVQLLESGGGLVQPGGSLRLSCAASGFTFSDYYMNWIRQAPGKGLEWVSSISGGSTYYADSVKGRFTISRDNSENTLYLQMNSLRAEDTAVYYCARDFGVAGWFGQFGMDVWGQGTLVTVSSGGGGSGGGGSGGGGSQSVLTQPPSASGTPGQRVTISCTGSSSNIGAGYDVHWYQQLPGTAPKLLIYRSNQRPSGVPDRFSGSKSGTSASLAISGLRSEDEADYYCSSYAGNYNLVFGGGTKLTVLDKTHTCPPCPAPEAAGAPSVFLFPPKPKDTLMISRTPEVTCVVVDVSHEDPEVKFNWYVDGVEVHNAKTKPREEQYNSTYRVVSVLTVLHQDWLNGKEYKCKVSNKALPAPIEKTISKAKGQPREPQVCTLPPSRDELTKNQVSLSCAVKGFYPSDIAVEWESNGQPENNYKTTPPVLDSDGSFFLVSKLTVDKSRWQQGNVFSCSVMHEALHNHYTQKSLSLSPGWSHPQFEK
B2: the “% Emax BMP9” value was 36% and the “Emax (RLU)” value was 972000 RLU.

B3: DGL910 (bispecific antibody)
chain 1: not shown
chain 2: EVQLLESGGGLVQPGGSLRLSCAASGFTFSDYYMTWIRQAPGKGLEWVSSISGGTTYYADSRKGRFTISRDNSENTLYLQMNSLRAEDTAVYYCARDFGVAGWFGQYGMDVWGQGTLVTVSSGGGGSGGGGSGGGGSQSVLTQPPSASGTPGQRVTISCTGSSSNIGAGYDVHWYQQLPGTAPKLLIYRSNQRPSGVPDRFSGSKSGTSASLAISGLRSEDEADYYCSSYAGNYNLVFGGGTKLTVLDKTHTCPPCPAPEAAGAPSVFLFPPKPKDTLMISRTPEVTCVVVDVSHEDPEVKFNWYVDGVEVHNAKTKPREEQYNSTYRVVSVLTVLHQDWLNGKEYKCKVSNKALPAPIEKTISKAKGQPREPQVCTLPPSRDELTKNQVSLSCAVKGFYPSDIAVEWESNGQPENNYKTTPPVLDSDGSFFLVSKLTVDKSRWQQGNVFSCSVMHEALHNHYTQKSLSLSPGWSHPQFEK
As to B3, the “% Emax BMP9” value was determined as 49% and the “Emax (RLU)” value was determined as 1.33e+06 RLU.

B4: DGL907 (bispecific antibody)
chain 1: not shown
chain 2: EVQLLESGGGLVQPGGSLRLSCAASGFTFSDYYMNWIRQAPGKGLEWVSSISGGSTYYADSVKGRFTISRDNSENTLYLQMNSLRAEDTAVYYCARDFGVAGWFGYYGMDVWGQGTLVTVSSGGGGSGGGGSGGGGSQSVLTQPPSASGTPGQRVTISCTGSSSNIGAGYDVHWYQQLPGTAPKLLIYRSNQRPSGVPDRFSGSKSGTSASLAISGLRSEDEADYYCSSYAGNYNLVFGGGTKLTVLDKTHTCPPCPAPEAAGAPSVFLFPPKPKDTLMISRTPEVTCVVVDVSHEDPEVKFNWYVDGVEVHNAKTKPREEQYNSTYRVVSVLTVLHQDWLNGKEYKCKVSNKALPAPIEKTISKAKGQPREPQVCTLPPSRDELTKNQVSLSCAVKGFYPSDIAVEWESNGQPENNYKTTPPVLDSDGSFFLVSKLTVDKSRWQQGNVFSCSVMHEALHNHYTQKSLSLSPGWSHPQFEK
As to B4, the “% Emax BMP9” value is 12% and the “Emax (RLU)” value stood at 321000 RLU.

B5: DGL911 (bispecific antibody)
chain 1: not shown
chain 2: EVQLLESGGGLVQPGGSLRLSCAASGFTFSDYWMTWIRQAPGKGLEWVSSISGGTTYYADSRKGRFTISRDNSENTLYLQMNSLRAEDTAVYYCARDFGVSGWFGQYGMDVWGQGTLVTVSSGGGGSGGGGSGGGGSQSVLTQPPSASGTPGQRVTISCTGSSSNIGAGYDVHWYQQLPGTAPKLLIYRSNQRPSGVPDRFSGSKSGTSASLAISGLRSEDEADYYCSSYAGNYNLVFGGGTKLTVLDKTHTCPPCPAPEAAGAPSVFLFPPKPKDTLMISRTPEVTCVVVDVSHEDPEVKFNWYVDGVEVHNAKTKPREEQYNSTYRVVSVLTVLHQDWLNGKEYKCKVSNKALPAPIEKTISKAKGQPREPQVCTLPPSRDELTKNQVSLSCAVKGFYPSDIAVEWESNGQPENNYKTTPPVLDSDGSFFLVSKLTVDKSRWQQGNVFSCSVMHEALHNHYTQKSLSLSPGWSHPQFEK
As for B5, the “% Emax BMP9” value came to 19% and the “Emax (RLU)” value was 521000 RLU.

B6: DGL909 (bispecific antibody)
chain 1: not shown
chain 2: EVQLLESGGGLVQPGGSLRLSCAASGFTFSDYWMTWIRQAPGKGLEWVSSISGGSTYYADSRKGRFTISRDNSENTLYLQMNSLRAEDTAVYYCARDFGVAGWFGQYGMDVWGQGTLVTVSSGGGGSGGGGSGGGGSQSVLTQPPSASGTPGQRVTISCTGSSSNIGAGYDVHWYQQLPGTAPKLLIYRSNQRPSGVPDRFSGSKSGTSASLAISGLRSEDEADYYCSSYAGNYNLVFGGGTKLTVLDKTHTCPPCPAPEAAGAPSVFLFPPKPKDTLMISRTPEVTCVVVDVSHEDPEVKFNWYVDGVEVHNAKTKPREEQYNSTYRVVSVLTVLHQDWLNGKEYKCKVSNKALPAPIEKTISKAKGQPREPQVCTLPPSRDELTKNQVSLSCAVKGFYPSDIAVEWESNGQPENNYKTTPPVLDSDGSFFLVSKLTVDKSRWQQGNVFSCSVMHEALHNHYTQKSLSLSPGWSHPQFEK
With B6, the “% Emax BMP9” value was 24% and the “Emax (RLU)” value was found to be 663000 RLU.

B7: DGL906 (bispecific antibody)
chain 1: not shown
chain 2: EVQLLESGGGLVQPGGSLRLSCAASGFTFSDSYMSWIRQAPGKGLEWVSSISGGSTYYADSVKGRFTISRDNSENTLYLQMNSLRAEDTAVYYCARDFGVAGYFGQYGMDVWGQGTLVTVSSGGGGSGGGGSGGGGSQSVLTQPPSASGTPGQRVTISCTGSSSNIGAGYDVHWYQQLPGTAPKLLIYRSNQRPSGVPDRFSGSKSGTSASLAISGLRSEDEADYYCSSYAGNYNLVFGGGTKLTVLDKTHTCPPCPAPEAAGAPSVFLFPPKPKDTLMISRTPEVTCVVVDVSHEDPEVKFNWYVDGVEVHNAKTKPREEQYNSTYRVVSVLTVLHQDWLNGKEYKCKVSNKALPAPIEKTISKAKGQPREPQVCTLPPSRDELTKNQVSLSCAVKGFYPSDIAVEWESNGQPENNYKTTPPVLDSDGSFFLVSKLTVDKSRWQQGNVFSCSVMHEALHNHYTQKSLSLSPGWSHPQFEK
With B7, the “% Emax BMP9” value is -2% and the “Emax (RLU)” value was -41100 RLU.

B8: DGL908 (bispecific antibody)
chain 1: not shown
chain 2: EVQLLESGGGLVQPGGSLRLSCAASGFTFSDYYMTWIRQAPGKGLEWVSSISGGSTYYADSRKGRFTISRDNSENTLYLQMNSLRAEDTAVYYCARDFGVSGWFGQYGMDVWGQGTLVTVSSGGGGSGGGGSGGGGSQSVLTQPPSASGTPGQRVTISCTGSSSNIGAGYDVHWYQQLPGTAPKLLIYRSNQRPSGVPDRFSGSKSGTSASLAISGLRSEDEADYYCSSYAGNYNLVFGGGTKLTVLDKTHTCPPCPAPEAAGAPSVFLFPPKPKDTLMISRTPEVTCVVVDVSHEDPEVKFNWYVDGVEVHNAKTKPREEQYNSTYRVVSVLTVLHQDWLNGKEYKCKVSNKALPAPIEKTISKAKGQPREPQVCTLPPSRDELTKNQVSLSCAVKGFYPSDIAVEWESNGQPENNYKTTPPVLDSDGSFFLVSKLTVDKSRWQQGNVFSCSVMHEALHNHYTQKSLSLSPGWSHPQFEK
For B8, the “% Emax BMP9” value came to 45% and the “Emax (RLU)” value worked out at 1.23e+06 RLU.
